PMC9482650, “Quantitative fragmentomics allow affinity mapping of interactomes” (Nature Communications, 2022)

T1: DFNB31_1, Q9P202
T1 sequence (Q9P202 135-233, limits assumed, looked up): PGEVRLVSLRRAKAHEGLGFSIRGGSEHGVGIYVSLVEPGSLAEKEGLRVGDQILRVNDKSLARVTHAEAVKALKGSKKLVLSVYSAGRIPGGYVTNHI

T2: APBA3_1, O96018
T2 sequence (O96018 389-490, limits assumed, looked up): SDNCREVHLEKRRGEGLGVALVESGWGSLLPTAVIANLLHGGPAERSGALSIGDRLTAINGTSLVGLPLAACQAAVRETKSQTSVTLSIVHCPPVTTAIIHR

T3: APBA2_1, Q99767
T3 sequence (Q99767 563-664, limits assumed, looked up): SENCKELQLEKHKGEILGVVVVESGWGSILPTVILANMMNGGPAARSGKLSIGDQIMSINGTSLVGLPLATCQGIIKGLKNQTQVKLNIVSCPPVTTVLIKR

T4: PTPN13_1, Q12923
T4 sequence (Q12923 1088-1188, limits assumed, looked up): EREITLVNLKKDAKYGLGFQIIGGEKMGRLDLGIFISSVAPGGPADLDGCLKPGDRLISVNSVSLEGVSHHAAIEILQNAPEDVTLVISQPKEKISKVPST

T5: NHERF3_4, Q5T2W1
T5 sequence (Q5T2W1 373-468, limits assumed, looked up): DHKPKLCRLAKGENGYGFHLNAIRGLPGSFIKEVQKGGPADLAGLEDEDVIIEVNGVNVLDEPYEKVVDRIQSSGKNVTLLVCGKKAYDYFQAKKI

T6: GRIP1_7, Q9Y3R0
T6 sequence (Q9Y3R0 999-1096, limits assumed, looked up): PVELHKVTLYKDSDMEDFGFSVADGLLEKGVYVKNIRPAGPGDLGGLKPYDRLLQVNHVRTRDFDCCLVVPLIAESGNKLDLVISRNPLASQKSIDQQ

T7: APBA1_1, Q02410
T7 sequence (Q02410 651-752, limits assumed, looked up): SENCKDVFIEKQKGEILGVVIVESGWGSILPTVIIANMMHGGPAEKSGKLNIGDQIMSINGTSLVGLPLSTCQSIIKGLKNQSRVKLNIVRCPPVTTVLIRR

T8: NHERF3_3, Q5T2W1
T8 sequence (Q5T2W1 238-333, limits assumed, looked up): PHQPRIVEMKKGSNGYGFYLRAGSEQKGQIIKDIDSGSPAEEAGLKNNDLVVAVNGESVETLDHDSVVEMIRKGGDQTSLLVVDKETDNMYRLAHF

T9: FRMPD1, Q5SYB0
T9 sequence (Q5SYB0 52-145, limits assumed, looked up): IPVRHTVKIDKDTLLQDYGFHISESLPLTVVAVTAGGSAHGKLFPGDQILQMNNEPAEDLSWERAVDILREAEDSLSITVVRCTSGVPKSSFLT

T10: APBA1_2, Q02410
T10 sequence (Q02410 742-832, limits assumed, looked up): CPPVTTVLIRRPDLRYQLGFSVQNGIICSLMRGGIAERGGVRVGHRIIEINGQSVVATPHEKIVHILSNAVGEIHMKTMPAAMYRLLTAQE

T11: LRRC7, Q96NW7
T11 sequence (Q96NW7 1440-1537, limits assumed, looked up): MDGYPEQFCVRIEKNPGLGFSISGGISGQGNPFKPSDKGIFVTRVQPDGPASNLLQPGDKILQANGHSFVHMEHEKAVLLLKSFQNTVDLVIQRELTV

T12: NHERF3_1, Q5T2W1
T12 sequence (Q5T2W1 4-100, limits assumed, looked up): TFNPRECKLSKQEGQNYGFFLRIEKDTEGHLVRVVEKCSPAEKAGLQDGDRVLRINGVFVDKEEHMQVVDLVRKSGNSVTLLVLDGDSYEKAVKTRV


Assays:
Test in all cases: holdup assay
Set-up in all cases: key: below the threshold = too weak to quantify, mostly under pKd 3.1 to 4
Conditions in all cases: plain residues with an end cap or a label only (N-terminal biotin on a linker: ado-ado)
DFNB31_1, Q9P202 = biological target: T1, DFNB31_1, Q9P202
APBA3_1, O96018 = biological target: T2, APBA3_1, O96018
MAGI2_2, Q86UL8 = biological target: MAGI2_2, Q86UL8
MAGI2_3, Q86UL8 = biological target: MAGI2_3, Q86UL8
HTRA2, O43464 = biological target: HTRA2, O43464
FRMPD3, Q5JV73 = biological target: FRMPD3, Q5JV73
APBA2_1, Q99767 = biological target: T3, APBA2_1, Q99767
PTPN13_1, Q12923 = biological target: T4, PTPN13_1, Q12923
Inadl_5, Q8NI35 = biological target: Inadl_5, Q8NI35
NHERF3_4, Q5T2W1 = biological target: T5, NHERF3_4, Q5T2W1
GRIP1_7, Q9Y3R0 = biological target: T6, GRIP1_7, Q9Y3R0
APBA1_1, Q02410 = biological target: T7, APBA1_1, Q02410
GRIP2_7, Q9C0E4 = biological target: GRIP2_7, Q9C0E4
NHERF3_3, Q5T2W1 = biological target: T8, NHERF3_3, Q5T2W1
FRMPD1, Q5SYB0 = biological target: T9, FRMPD1, Q5SYB0
DLG2_3, Q15700 = biological target: DLG2_3, Q15700
DLG1_2, Q12959 = biological target: DLG1_2, Q12959
APBA1_2, Q02410 = biological target: T10, APBA1_2, Q02410
Inadl_2, Q8NI35 = biological target: Inadl_2, Q8NI35
FRMPD4, Q14CM0 = biological target: FRMPD4, Q14CM0
LRRC7, Q96NW7 = biological target: T11, LRRC7, Q96NW7
DLG1_1, Q12959 = biological target: DLG1_1, Q12959
GRID2IP_1, A4D2P6 = biological target: GRID2IP_1, A4D2P6
IL16_4, Q14005 = biological target: IL16_4, Q14005
DLG1_3, Q12959 = biological target: DLG1_3, Q12959
NHERF3_1, Q5T2W1 = biological target: T12, NHERF3_1, Q5T2W1

Chain of FRMPD4, Q14CM0 (Q14CM0 67-160): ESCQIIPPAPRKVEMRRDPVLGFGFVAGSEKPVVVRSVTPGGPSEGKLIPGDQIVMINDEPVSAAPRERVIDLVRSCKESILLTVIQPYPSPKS
Chain of IL16_4, Q14005 (Q14005 1229-1329): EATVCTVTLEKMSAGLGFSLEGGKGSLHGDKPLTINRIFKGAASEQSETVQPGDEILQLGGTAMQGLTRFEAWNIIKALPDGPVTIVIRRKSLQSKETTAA
Chain of FRMPD3, Q5JV73 (Q5JV73 12-100): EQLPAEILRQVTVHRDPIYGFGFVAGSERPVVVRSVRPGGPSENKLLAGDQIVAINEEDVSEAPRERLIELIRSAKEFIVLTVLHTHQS
Chain of MAGI2_3, Q86UL8 (Q86UL8 600-682): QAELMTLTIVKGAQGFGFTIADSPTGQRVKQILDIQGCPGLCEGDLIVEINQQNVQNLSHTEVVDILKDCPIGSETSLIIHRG
Chain of MAGI2_2, Q86UL8 (Q86UL8 410-522): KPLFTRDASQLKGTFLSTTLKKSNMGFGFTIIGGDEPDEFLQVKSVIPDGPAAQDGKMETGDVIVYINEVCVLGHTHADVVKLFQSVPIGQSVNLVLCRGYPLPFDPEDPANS
Chain of GRIP2_7, Q9C0E4 (Q9C0E4 934-1023): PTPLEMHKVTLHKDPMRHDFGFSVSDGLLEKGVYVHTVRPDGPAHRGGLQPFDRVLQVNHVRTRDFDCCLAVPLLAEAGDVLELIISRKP
Chain of Inadl_5, Q8NI35 (Q8NI35 673-780): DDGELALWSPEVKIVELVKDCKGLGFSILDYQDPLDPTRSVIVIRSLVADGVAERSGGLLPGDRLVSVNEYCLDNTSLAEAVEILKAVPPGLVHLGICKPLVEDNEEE
Chain of Inadl_2, Q8NI35 (Q8NI35 238-335): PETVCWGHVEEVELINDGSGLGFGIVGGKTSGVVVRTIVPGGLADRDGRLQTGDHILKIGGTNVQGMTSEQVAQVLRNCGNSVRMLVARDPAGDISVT
Chain of HTRA2, O43464 (O43464 355-458): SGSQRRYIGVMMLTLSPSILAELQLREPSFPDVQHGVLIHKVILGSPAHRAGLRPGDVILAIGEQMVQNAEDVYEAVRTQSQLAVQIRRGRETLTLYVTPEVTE
Chain of GRID2IP_1, A4D2P6 (A4D2P6 1-87): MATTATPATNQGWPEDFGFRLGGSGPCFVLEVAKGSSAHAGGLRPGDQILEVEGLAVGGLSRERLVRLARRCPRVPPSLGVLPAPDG

| Binder | pKd (DFNB31_1, Q9P202) | pKd (APBA3_1, O96018) | pKd (MAGI2_2, Q86UL8) | pKd (MAGI2_3, Q86UL8) | pKd (HTRA2, O43464) | pKd (FRMPD3, Q5JV73) | pKd (APBA2_1, Q99767) | pKd (PTPN13_1, Q12923) | pKd (Inadl_5, Q8NI35) | pKd (NHERF3_4, Q5T2W1) | pKd (GRIP1_7, Q9Y3R0) | pKd (APBA1_1, Q02410) | pKd (GRIP2_7, Q9C0E4) | pKd (NHERF3_3, Q5T2W1) | pKd (FRMPD1, Q5SYB0) | pKd (DLG2_3, Q15700) | pKd (DLG1_2, Q12959) | pKd (APBA1_2, Q02410) | pKd (Inadl_2, Q8NI35) | pKd (FRMPD4, Q14CM0) | also measured |
| --- | --- | --- | --- | --- | --- | --- | --- | --- | --- | --- | --- | --- | --- | --- | --- | --- | --- | --- | --- | --- | --- |
| QGLAERISVL [PRKD2, Q9BZL6] | below the threshold | below the threshold | below the threshold | below the threshold | below the threshold | below the threshold | below the threshold | below the threshold | below the threshold | 3.73 | below the threshold | below the threshold | below the threshold | below the threshold | below the threshold | below the threshold | 3.67 | 4.05 | below the threshold | 3.83 | pKd (LRRC7, Q96NW7): below the threshold; pKd (DLG1_1, Q12959): below the threshold; pKd (GRID2IP_1, A4D2P6): below the threshold; pKd (IL16_4, Q14005): 3.71; pKd (DLG1_3, Q12959): below the threshold; pKd (NHERF3_1, Q5T2W1): 4.28 |
| NHSSSPETTA [TRMT13, Q9NUP7] | below the threshold | below the threshold | below the threshold | below the threshold | below the threshold | below the threshold | below the threshold | below the threshold | below the threshold | below the threshold | below the threshold | below the threshold | below the threshold | below the threshold | below the threshold | 3.67 | below the threshold | below the threshold | below the threshold | below the threshold | pKd (LRRC7, Q96NW7): below the threshold; pKd (DLG1_1, Q12959): below the threshold; pKd (GRID2IP_1, A4D2P6): below the threshold; pKd (IL16_4, Q14005): below the threshold; pKd (DLG1_3, Q12959): below the threshold; pKd (NHERF3_1, Q5T2W1): below the threshold |
| PAPSSGKDYV [CLDN1, O95832] | below the threshold | below the threshold | below the threshold | below the threshold | below the threshold | below the threshold | below the threshold | below the threshold | below the threshold | below the threshold | 3.87 | below the threshold | 3.63 | below the threshold | below the threshold | below the threshold | below the threshold | 4.09 | below the threshold | 3.59 | pKd (LRRC7, Q96NW7): below the threshold; pKd (DLG1_1, Q12959): below the threshold; pKd (GRID2IP_1, A4D2P6): below the threshold; pKd (IL16_4, Q14005): below the threshold; pKd (DLG1_3, Q12959): below the threshold; pKd (NHERF3_1, Q5T2W1): 4.08 |
| EVEEFPETSV [TRPV3, Q8NET8] | 4.86 | below the threshold | 3.76 | 4.06 | below the threshold | 3.59 | below the threshold | 3.58 | 3.56 | below the threshold | 3.48 | below the threshold | 3.58 | below the threshold | below the threshold | 4.41 | 4.51 | 4.33 | below the threshold | 3.74 | pKd (LRRC7, Q96NW7): 4.08; pKd (DLG1_1, Q12959): 4.25; pKd (GRID2IP_1, A4D2P6): 3.7; pKd (IL16_4, Q14005): below the threshold; pKd (DLG1_3, Q12959): 4.64; pKd (NHERF3_1, Q5T2W1): 4.47 |
